Variants at the floor of the assay were thinned out.
What was measured:
biotinyl-Leu-oxazolone = experiment: self-aminoacylation, catalytic enhancement (BLO) (fold over background); higher = more active; k-Seq, kA / k0A0; sequences stand for … in GGGAAUGGAUCCACAUCUACGAAUUC…UUCACUGCAGACUUGACGAAGCUG
In short: (§1)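 The uncatalyzed rate is the low-activity peak of a bimodal Gaussian fit, and catalytic enhancement is median kA divided by it. The kA values came from pseudo-first-order fits, with 1000 bootstraps, of per-sequence fraction reacted measured by streptavidin capture, triplicate qPCR and Illumina sequencing. Mutagenized RNA pools with a 21-nt variable region (0.43 μM) were reacted with each biotinyl-aminoacyl-oxazolone at 2–1250 μM in 50 μL HEPES/NaCl/KCl/MgCl2/CaCl2 buffer with 5% acetonitrile, pH 6.9–7.0, for 90 minutes at room temperature.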

biotinyl-Trp-oxazolone = experiment: self-aminoacylation, catalytic enhancement (BWO) (fold over background); higher = more active; k-Seq, kA / k0A0; sequences stand for … in GGGAAUGGAUCCACAUCUACGAAUUC…UUCACUGCAGACUUGACGAAGCUG
In short: as §1

biotinyl-Phe-oxazolone = experiment: self-aminoacylation, catalytic enhancement (BFO) (fold over background); higher = more active; k-Seq, kA / k0A0; sequences stand for … in GGGAAUGGAUCCACAUCUACGAAUUC…UUCACUGCAGACUUGACGAAGCUG
In short: as §1

biotinyl-Met-oxazolone = experiment: self-aminoacylation, catalytic enhancement (BMO) (fold over background); higher = more active; k-Seq, kA / k0A0; sequences stand for … in GGGAAUGGAUCCACAUCUACGAAUUC…UUCACUGCAGACUUGACGAAGCUG
In short: as §1

biotinyl-Val-oxazolone = experiment: self-aminoacylation, catalytic enhancement (BVO) (fold over background); higher = more active; k-Seq, kA / k0A0; sequences stand for … in GGGAAUGGAUCCACAUCUACGAAUUC…UUCACUGCAGACUUGACGAAGCUG
In short: as §1

biotinyl-Ile-oxazolone = experiment: self-aminoacylation, catalytic enhancement (BIO) (fold over background); higher = more active; k-Seq, kA / k0A0; sequences stand for … in GGGAAUGGAUCCACAUCUACGAAUUC…UUCACUGCAGACUUGACGAAGCUG
In short: as §1

| Sequence | self-aminoacylation (biotinyl-Leu-oxazolone) | self-aminoacylation (biotinyl-Trp-oxazolone) | self-aminoacylation (biotinyl-Phe-oxazolone) | self-aminoacylation (biotinyl-Met-oxazolone) | self-aminoacylation (biotinyl-Val-oxazolone) | self-aminoacylation (biotinyl-Ile-oxazolone) |
| --- | --- | --- | --- | --- | --- | --- |
| AUGCACUUAGGUCAUCGGGUG [Fam2.2 aminoacylation ribozyme variant] | 10.6 | 7.92 | 62.8 | 8.73 | 5.03 | 5.29 |
| CGACACUUCAAGCAAUCGGAC [Fam1B.1 aminoacylation ribozyme variant] | 1.57 | 1.31 | 1.21 | 1.74 | 1.31 | 1.67 |
| AUUACACUGGUCAUCGAGGGA [Fam2.1 aminoacylation ribozyme variant] | 1.4 | 2.72 | 0.709 | 1.26 | 1.37 | 1.64 |
| AUUCACCUAGGUCAUCAGUUG [Fam2.2 aminoacylation ribozyme variant] | 0.942 | 0.698 | 0.935 | 0.88 | 0.939 | 0.954 |
| AAGUUUGCGAAUAGUCGCAAA [Fam3.1 aminoacylation ribozyme variant] | 1.38 | 1.31 | 1.97 | 2.22 | 1.57 | 2.03 |
| AUUCACCUAGAUCAUGGGGUG [Fam2.2 aminoacylation ribozyme variant] | 6.83 | 4.68 | 31.5 | 5.3 | 2.61 | 3.07 |
| AUUCGCCUAGGUCAUCAGGUG [Fam2.2 aminoacylation ribozyme variant] | 2.02 | 2.53 | 7.29 | 1.97 | 1.53 | 1.48 |
| AAGUUUGCUAAUUGGCGCAAG [Fam3.1 aminoacylation ribozyme variant] | 1.1 | 0.714 | 2.62 | 0.964 | 0.935 | 0.829 |
| AUUCACCUUGGUUAUCGGGUG [Fam2.2 aminoacylation ribozyme variant] | 5.92 | 5.27 | 35.2 | 5.13 | 3.85 | 3.26 |
| AGUACCCAGGUCAUCGAGUGA [Fam2.1 aminoacylation ribozyme variant] | 5.05 | 6.61 | 16.6 | 5.45 | 3.2 | 3.36 |
| AAGUUUGCUAAUAGUCUAAAG [Fam3.1 aminoacylation ribozyme variant] | 0.882 | 1.9 | 5.62 | 0.959 | 1.28 | 1.28 |
| CUUGUUCAAACAAUCGGUCUG [Fam1A.1 aminoacylation ribozyme variant] | 1.18 | 3.07 | 5.84 | 0.957 | 0.967 | 1.07 |
| AUCCACAUAGGUCAUCGGGUG [Fam2.2 aminoacylation ribozyme variant] | 12.1 | 8.91 | 78.8 | 10.1 | 6.77 | 5.82 |
| AUUCGCCUAGCUCAUCGGGUG [Fam2.2 aminoacylation ribozyme variant] | 2.99 | 2.87 | 12.7 | 2.28 | 2.59 | 2.6 |
| AUUAUCCUGGUCAUGGAGUGA [Fam2.1 aminoacylation ribozyme variant] | 4.6 | 5.21 | 13.6 | 4.22 | 2.6 | 2.67 |
| AUUCACCUAGGGCAUCCGGUG [Fam2.2 aminoacylation ribozyme variant] | 12.6 | 8.38 | 54.4 | 10.7 | 8.74 | 10.5 |
| AUUCUCCUAGCUCAUCGGGUG [Fam2.2 aminoacylation ribozyme variant] | 3.79 | 4.24 | 23.2 | 3.24 | 3.75 | 3.32 |
| AUAACCCUGGACAUCGAGUGA [Fam2.1 aminoacylation ribozyme variant] | 6.63 | 5.65 | 28.8 | 6.69 | 2.47 | 3.02 |
| AUACUUCAAACAAUCGAUCUG [Fam1A.1 aminoacylation ribozyme variant] | 0.485 | 0.648 | 0.915 | 0.535 | 0.59 | 0.684 |
| GAGUUUGCUAAUAGUCGCAAG [Fam3.1 aminoacylation ribozyme variant] | 1.39 | 7.44 | 22.7 | 1.78 | 1.5 | 1.72 |
| CGUACCCUGGUCAUCGAGUGA [Fam2.1 aminoacylation ribozyme variant] | 9.81 | 10.9 | 10.1 | 8.76 | 5.62 | 4.66 |
| CCAUACUUCAAGCAAUUGGUC [Fam1B.1 aminoacylation ribozyme variant] | 0.667 | 0.625 | 1.13 | 0.689 | 0.762 | 0.743 |
| AUUAACGUGGUCAUCGAGUGA [Fam2.1 aminoacylation ribozyme variant] | 4.72 | 6.07 | 18.6 | 4.88 | 2.75 | 2.95 |
| AUUCACCUACGUCAUCGGGUC [Fam2.2 aminoacylation ribozyme variant] | 1.36 | 0.963 | 4.31 | 1.25 | 1.21 | 1.17 |
| AUUCACCCCGGUCAUCGGGUG [Fam2.2 aminoacylation ribozyme variant] | 8.33 | 5.88 | 64.7 | 7.52 | 3.99 | 4.14 |
| CGACACCUCAAGCAAUCGGUC [Fam1B.1 aminoacylation ribozyme variant] | 0.749 | 1.17 | 1.16 | 1.03 | 1.06 | 0.973 |

Source: the supplement of paper PMC9233669
